The source of these data is the supplement of paper PMC9170038.

This series has as its system MS2 coat protein. The series can be described thus: apparent KD of MS2 coat protein; designed switch direction (-1 OFF switch, 1 ON switch): -1; higher = weaker reporter binding. In a few lines:
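RNA switches sharing common flanks were transcribed by stalled E. coli RNA polymerase on Illumina chips. A doubling series of SNAP-549-labelled MS2 coat protein, from 0.7 or 1.5 nM to 3 µM, was applied in Tris-HCl pH 7.5 buffer with KCl, MgCl2, BSA, DTT, tRNA and Tween-20. Each step lasted 0.8–1.5 h at the bottom of the series and 10–20 min at the top. Normalised cluster fluorescence was curve-fitted, giving apparent KD as the per-design median over clusters.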

[1] abbreviates: Eterna round: R95, input ligand: FMN 200 uM.
Where [2] appears, read: Eterna round: R95, input ligand: microRNA oligo, concentration not stated.
[3] abbreviates: Eterna round: R95, input ligand: none.
Setting [4] is: input ligand: microRNA oligo, concentration not stated.

Regarding “AUUUAUGGAGGAUAUACUUGAGGAUCACCCAAGUGGAGUCCCGUUUGGGCGGUAAAUAGUAGAAGGCCGUCCUA [jl-ex3-4.47 ViennaUCT mod] (Eterna round: R97, puzzle: Exclusion 3)”, the “apparent KD of MS2 coat protein” value (input ligand: FMN 200 uM) worked out at 15.7 nM and the “apparent KD of MS2 coat protein” value (input ligand: none) came out at 14.2 nM.
“AUUUUGUGAGGAUAUGUGGCUUCGAUCGUGAAAUCGAGGCUACAGAAGGCACAUGAGGAUCACCCAUGUUCCUA [salish99_ex4_r4_117] (Eterna round: R97, puzzle: Exclusion 4)”: the “apparent KD of MS2 coat protein” value (input ligand: FMN 200 uM) turned out to be 178 nM and the “apparent KD of MS2 coat protein” value (input ligand: none) worked out at 19.6 nM.
The corresponding values for “CAAAGAUAAGGAUAUUGAAGGUUCGACAUGAGGAUCACCCAUGUUAUGUUGGAAAAGGGACAAGAAGGUAUGAAAU [salish99_ex5_r4_213] (Eterna round: R97, puzzle: Exclusion 5)” are 41.5 nM and 40.3 nM.
The corresponding values for “CAAGUGUUAGGAUAUACCAGUUAAAUGCAGCUGCCGUCGGAGUAGAAGGGACAUGAGGAUCACCCAUGUCGGGA [Eternabot (L1) Solution 28] (Eterna round: R97, puzzle: Exclusion 4)” are 46.1 nM and 35.1 nM.
Regarding “CAAUAACAAGCGAGAUCCUACAUGAGGAUCACCCAUGUGCUCGUCUUAUAAAGUACUAUCACGAAAGUGAUAGUACA [Mat - Sensor v3 - turn-off var 1 - Eli Mod - D63] (puzzle: Sensor v3, turn-off variant 1)”, the “apparent KD of MS2 coat protein” value reads like this: under setting [1], 19.6 nM; under setting [2], 34 nM; under setting [3], 14.9 nM.
Turning to “CAAUGACAUGAGGAUCACCCAUGUGAGGAUAUGGAGCGCGACCGCGCGGUCGCGUACACCAGAAGGCGCAGGAA [1st #69] (Eterna round: R97, puzzle: Exclusion 1)”, the “apparent KD of MS2 coat protein” value (input ligand: FMN 200 uM) is 59.7 nM and the “apparent KD of MS2 coat protein” value (input ligand: none) turned out to be 29.4 nM.
The corresponding values for “CACCUACAUGAGGAUCACCCAUGUCAGGAUAUCUUUGCUAAUAUGAAUAGAUGCGUAAAGAGAAGGGACAUUUC [EX1 C.8] (Eterna round: R97, puzzle: Exclusion 1)” are 27 nM and 14.9 nM.
Consider “CAGAAACAUGAGGAUCACCCAUGUGAGGAUAUGCGUACGUUGUCCGUAGGCGACGUGCGCAGAAGGCGCAAAGG [Mat - Mod of JL D85] (puzzle: Exclusion 1)”, for which the “apparent KD of MS2 coat protein” value came out at 115 nM under setting [1], 59.3 nM under setting [2] and 116 nM under setting [3].
Turning to “CAGGAACCAGCAGGAUAUGUGCGGCUGCUAACGUGAACCAACAUGAGGAUCACCCAUGUAGGCACGCAGAAGGGCUCAGCCUGC [Orgevebe] (Eterna round: R96, puzzle: Exclusion NG 2)”, the “apparent KD of MS2 coat protein” value by setting is: (input ligand: FMN 200 uM) 8.78 nM; under setting [4], 10.6 nM; (input ligand: none) 13.5 nM.
For “CAGGUGUAAGGAUAUACCGGAUGGUCCAAAGCUUGGCAAAGACAUGAGGAUCACCCAUGUAGAAGGUACGUCCG [Eternabot (Original) Solution 21] (Eterna round: R97, puzzle: Exclusion 2)”, the “apparent KD of MS2 coat protein” value (input ligand: FMN 200 uM) was determined as 313 nM and the “apparent KD of MS2 coat protein” value (input ligand: none) was found to be 383 nM.
As to “CAGUACAGAGGAUAUACAUGAGGAUCACCCAUGUGUUUCAGCUAGGAGACUAGCGAAAGUAGAAGGCUGUACUU [salish99_ex3_r4_002] (Eterna round: R97, puzzle: Exclusion 3)”, the “apparent KD of MS2 coat protein” value was 23 nM (input ligand: FMN 200 uM) and 11.3 nM (input ligand: none).
As to “CAGUACUGAGGAUAUACAUGAGGAUCACCCAUGUGAGAAAUACUAGUGAGGUCGAUUAGUAGAAGGCAGUACUG [Mat - Exclusion 3 - Eli Mod - D31] (Eterna round: R97, puzzle: Exclusion 3)”, the “apparent KD of MS2 coat protein” value by setting is: (input ligand: FMN 200 uM) 761 nM; (input ligand: none) 35.4 nM.
For the sequence “CAGUACUGAGGAUAUACAUGAGGAUCACCCAUGUGUACCAGCUAGGAUACUAGCAAAAGUAGAAGGCAGUACUG [Mat - Exclusion 3 - Eli Mod - D21] (Eterna round: R97, puzzle: Exclusion 3)”, the “apparent KD of MS2 coat protein” value stood at 31.2 nM (input ligand: FMN 200 uM) and 19.5 nM (input ligand: none).
With “CAGUACUGAGGAUAUACAUGAGGAUCACCCAUGUGUCCCAGCUAGGAUACUAGCAAAGGUAGAAGGCAGUACUG [Mat - Exclusion 3 - Eli Mod - D15] (Eterna round: R97, puzzle: Exclusion 3)”, the “apparent KD of MS2 coat protein” value reads like this: (input ligand: FMN 200 uM) 945 nM; (input ligand: none) 39.2 nM.
“CAGUACUGAGGAUAUACAUGAGGAUCACCCAUGUGUCCCGGCUAGGAAACUAGCAAAAGUAGAAGGCAGUACUG [Fiskers Ex 3 828 mod 2] (Eterna round: R96, puzzle: Exclusion 3)”: the “apparent KD of MS2 coat protein” value by setting is: (input ligand: FMN 200 uM) 494 nM; under setting [4], 21.6 nM; (input ligand: none) 24.1 nM.
In the case of “CAGUACUGAGGAUAUACAUGAGGAUCACCCAUGUGUCCCGGCUAGGAAACUAGCAAAAGUAGAAGGCAGUACUG [Fiskers Ex 3 828 mod 2] (puzzle: Exclusion 3)”, the “apparent KD of MS2 coat protein” value under setting [2] was 25.1 nM.
As to “CAGUACUGAGGAUAUACAUGAGGAUCACCCAUGUGUGUGAAUUUUAUGUGGUCGUAAUGUAGAAGGCAGUACUG [JR_Ex3_Sub027] (Eterna round: R97, puzzle: Exclusion 3)”, the “apparent KD of MS2 coat protein” value by setting is: (input ligand: FMN 200 uM) 407 nM; (input ligand: none) 86.3 nM.
For “CAGUACUGAGGAUAUACAUGAGGAUCACCCAUGUGUGUGAGAAUUGUAUGAAUGUUAUGUAGAAGGCGGUGCUG [JR_Ex3_Sub033] (Eterna round: R97, puzzle: Exclusion 3)”, the “apparent KD of MS2 coat protein” value (input ligand: FMN 200 uM) came out at 143 nM and the “apparent KD of MS2 coat protein” value (input ligand: none) worked out at 765 nM.
As for “CAGUACUGAGGAUAUACAUGAGGAUCACCCAUGUGUUCCAGCUAGGAAACUAGCGAAAGUAGAAGGCAGUACUG [salish99_ex3_r3_068] (Eterna round: R96, puzzle: Exclusion 3)”, the “apparent KD of MS2 coat protein” value reads like this: (input ligand: FMN 200 uM) 562 nM; under setting [4], 19.9 nM; (input ligand: none) 24.6 nM.
As for “CAGUACUGAGGAUAUACAUGAGGAUCACCCAUGUGUUCCAGCUAGGAAACUAGCGAAAGUAGAAGGCAGUACUG [salish99_ex3_r3_068] (puzzle: Exclusion 3)”, the “apparent KD of MS2 coat protein” value under setting [2] is 22.9 nM.
On the same count and under the same terms, as for “CAGUACUGAGGAUAUACAUGAGGAUCACCCAUGUGUUCCAGCUAGGAAACUUGCAAAAGUAGAAGGCAGUACUG [salish99_ex3_r3_093x] (puzzle: Exclusion 3)”, the figure is 11.9 nM.
Same read-out and setting: as for “CAUACACAUGAGGAUCACCCAUGUGAGGAUAUGCGUACGUUGUCCGUAGGCGACGUGCGCAGAAGGCGCGUGAG [JL-ex1-3.14 Eli mod] (puzzle: Exclusion 1)”, the figure is 45.3 nM.
In the case of “CAUAGUCUAGGAUAUUCACCUCUAUACAUGAGGAUCACCCAUGUCAAUGGCAGAUGACCAGAAGAAGGAGAAGUGG [Eternabot (L1) Solution 16] (Eterna round: R97, puzzle: Exclusion 5)”, the “apparent KD of MS2 coat protein” value came to 90.2 nM (input ligand: FMN 200 uM) and 84.8 nM (input ligand: none).
In the case of “CAUAGUUACUCAGGAUAUACUACAUGAGGAUCACCCAUGUAAUAAAUGAGAAUUUCGAAUGUAUAGUAGAAGGGAGAAAUCUAC [Ostracism 56 - Jieux - Exclusion NG 2] (Eterna round: R96, puzzle: Exclusion NG 2)”, the “apparent KD of MS2 coat protein” value was 18.3 nM (input ligand: FMN 200 uM), 14.7 nM under setting [4] and 23.8 nM (input ligand: none).
The corresponding values for “CAUAGUUACUCAGGAUAUCAUACAUGAGGAUCACCCAUGUAAUAAAUGAGAAUUUCGAAUGUAUAUGAGAAGGGAGAAAUCUAC [Ostracism 59 - Jieux - Exclusion NG 2] (Eterna round: R96, puzzle: Exclusion NG 2)” are 69.2 nM, 13.4 nM and 22.6 nM.
Take “CAUAUAGUAGUCAGGAUAUGCGAAGAGAGAAGGAAGUAGAAGGGACAUGAGGAUCACCCAUGUAUAUUGUAAAG [EX-4 Malc #3] (puzzle: Brourd's mod of Exclusion 4)”: the “apparent KD of MS2 coat protein” value came out at 29.6 nM under setting [1], 28.9 nM under setting [2] and 28.4 nM under setting [3].
For “CAUCACUGCUAGGAUAUCGAGUCGGAGAAUACUUGAGAAGGAGCUACAUGAGGAUCACCCAUGUCCUCCGCGAU [Eternabot (L2) Solution 72] (Eterna round: R97, puzzle: Exclusion 6)”, the “apparent KD of MS2 coat protein” value (input ligand: FMN 200 uM) stood at 47.3 nM and the “apparent KD of MS2 coat protein” value (input ligand: none) is 18.8 nM.
For “CAUCAGGGAGGAUAUACAUAACUAAAAGGCUAGCAGUCCGUACAUGAGGAUCACCCAUGUAGAAGGCCCGAGUA [EX2 B.6] (Eterna round: R97, puzzle: Exclusion 2)”, the “apparent KD of MS2 coat protein” value (input ligand: FMN 200 uM) is 46.9 nM and the “apparent KD of MS2 coat protein” value (input ligand: none) is 20 nM.
The corresponding values for “CAUGAAGACAAGGAUAUCCGAAUGACGUAAGAAGGAGAAGGUGUCACAUGAGGAUCACCCAUGUGGGAUCUCUG [EX6 B.15] (Eterna round: R97, puzzle: Exclusion 6)” are 138 nM and 23.9 nM.
Turning to “CAUGAGGUAGGAUAUACGAUAAUAUAGGGUAGAUAUAUAACACAUGAGGAUCACCCAUGUAGAAGGACCAGUAC [Mat - Exclusion 2 - Mod of my Tesla design - D68] (puzzle: Exclusion 2)”, the “apparent KD of MS2 coat protein” value reads like this: under setting [1], 95.7 nM; under setting [2], 35.9 nM; under setting [3], 34.4 nM.
On to “CAUGAUCUUCGGAUCAUGUACAUGAGGAUCACCCAUGUGACGAGUAUAUCUUCAAACAAGCUUUUUGCUCGUCUUAU [Sensor v3 - Turn-off variant 1 - 23] (puzzle: Sensor v3, turn-off variant 1)”, for which the “apparent KD of MS2 coat protein” value is, setting by setting: under setting [1], 41.6 nM; under setting [2], 49.8 nM; under setting [3], 41.6 nM.
